Measurements as given in publication PMC3950709 (Nucleic Acids Research, 2013).
Positions count from the first letter of the chain named. In names and notes the source's numbering stands. Where two headings read alike, the source gives them in different places.

Experiments:
[1] = molecular target: rabbit IFIT1B (rIFIT1B), recombinant (rabbit); assay: native gel or EMSA
[2] = molecular target: native rabbit IFIT1B (native rIFIT1B) (rabbit (endogenous in rabbit reticulocyte lysate)); assay: native gel or EMSA
native gel or EMSA [3] = molecular target: the molecule itself; assay: native gel or EMSA
native gel or EMSA [4] = molecular target: the molecule itself; assay: native gel or EMSA; remark: listed apart in the source
hIFIT3 = molecular target: T1, hIFIT3 (Homo sapiens, UniProt O14879 1-490); assay: EMSA
T1 sequence: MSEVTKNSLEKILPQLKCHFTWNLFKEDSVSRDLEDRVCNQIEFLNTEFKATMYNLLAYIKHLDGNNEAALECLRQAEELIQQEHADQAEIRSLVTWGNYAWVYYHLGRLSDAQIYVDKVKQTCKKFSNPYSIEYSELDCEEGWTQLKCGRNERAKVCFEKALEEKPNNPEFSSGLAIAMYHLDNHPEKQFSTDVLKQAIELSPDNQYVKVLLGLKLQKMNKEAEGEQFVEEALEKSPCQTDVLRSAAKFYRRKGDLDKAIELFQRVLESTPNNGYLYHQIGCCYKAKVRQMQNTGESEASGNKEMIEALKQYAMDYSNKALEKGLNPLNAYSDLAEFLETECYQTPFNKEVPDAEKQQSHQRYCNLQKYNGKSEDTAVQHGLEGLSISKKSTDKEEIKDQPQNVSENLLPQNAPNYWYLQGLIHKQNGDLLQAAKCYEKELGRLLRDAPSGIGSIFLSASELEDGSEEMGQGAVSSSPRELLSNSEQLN

hIFIT2 = molecular target: T2, hIFIT2 (Homo sapiens, UniProt P09913 1-472); assay: EMSA
T2 sequence: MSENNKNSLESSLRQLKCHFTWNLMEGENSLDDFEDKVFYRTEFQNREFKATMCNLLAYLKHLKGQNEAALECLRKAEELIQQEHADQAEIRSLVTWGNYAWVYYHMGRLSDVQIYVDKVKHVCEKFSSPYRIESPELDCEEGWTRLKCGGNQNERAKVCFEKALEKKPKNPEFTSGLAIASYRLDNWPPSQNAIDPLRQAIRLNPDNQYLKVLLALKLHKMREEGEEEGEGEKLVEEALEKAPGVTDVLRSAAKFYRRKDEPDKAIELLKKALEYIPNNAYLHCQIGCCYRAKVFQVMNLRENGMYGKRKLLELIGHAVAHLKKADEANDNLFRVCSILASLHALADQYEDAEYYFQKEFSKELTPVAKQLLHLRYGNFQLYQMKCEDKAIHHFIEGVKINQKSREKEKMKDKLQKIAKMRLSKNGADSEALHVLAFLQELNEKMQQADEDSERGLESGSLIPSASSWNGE

hIFIT5 = molecular target: T3, hIFIT5 (Homo sapiens, UniProt Q13325 1-482); assay: EMSA
T3 sequence: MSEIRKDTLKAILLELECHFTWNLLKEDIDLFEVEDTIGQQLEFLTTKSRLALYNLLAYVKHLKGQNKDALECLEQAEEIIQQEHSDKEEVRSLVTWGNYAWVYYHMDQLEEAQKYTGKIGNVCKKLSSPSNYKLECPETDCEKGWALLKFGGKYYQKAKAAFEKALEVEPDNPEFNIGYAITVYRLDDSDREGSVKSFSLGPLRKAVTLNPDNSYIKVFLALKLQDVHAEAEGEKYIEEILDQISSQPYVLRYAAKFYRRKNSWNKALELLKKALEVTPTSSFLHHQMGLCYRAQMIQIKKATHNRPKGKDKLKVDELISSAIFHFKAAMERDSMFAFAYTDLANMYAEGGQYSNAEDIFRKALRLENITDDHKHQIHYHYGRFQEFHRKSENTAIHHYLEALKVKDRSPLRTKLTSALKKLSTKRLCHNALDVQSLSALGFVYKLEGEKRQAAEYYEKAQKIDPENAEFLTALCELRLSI

hIFIT1 [5] = molecular target: T4, hIFIT1 (Homo sapiens, UniProt P09914 1-478); assay: EMSA
T4 sequence: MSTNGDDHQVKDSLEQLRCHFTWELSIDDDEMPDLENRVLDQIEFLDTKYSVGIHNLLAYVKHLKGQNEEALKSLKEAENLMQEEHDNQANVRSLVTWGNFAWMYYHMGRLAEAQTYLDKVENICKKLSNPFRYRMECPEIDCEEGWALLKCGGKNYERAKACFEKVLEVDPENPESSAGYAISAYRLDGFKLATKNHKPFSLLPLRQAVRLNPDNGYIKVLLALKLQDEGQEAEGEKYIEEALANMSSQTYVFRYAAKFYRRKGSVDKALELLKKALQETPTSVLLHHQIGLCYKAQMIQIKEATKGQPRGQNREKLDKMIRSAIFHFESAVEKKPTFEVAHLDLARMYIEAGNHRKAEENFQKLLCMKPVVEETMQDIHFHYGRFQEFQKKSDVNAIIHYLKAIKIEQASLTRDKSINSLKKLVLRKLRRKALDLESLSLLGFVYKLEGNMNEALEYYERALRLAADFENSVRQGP

hIFIT1 [6] = molecular target: T4, hIFIT1; assay: EMSA; remark: listed apart in the source

“rabbit IFIT1B (rIFIT1B), recombinant (natural protein)” showed a stoichiometry N [1] of 2.

In the case of “native rabbit IFIT1B (native rIFIT1B) (natural protein)”, the stoichiometry N [2] is reported as 2.

B1: human IFIT1 (hIFIT1), recombinant wild type (natural protein, UniProt P09914 1-478, looked up)
chain: T4 sequence
B1: binds (native gel or EMSA [3]).

B2: hIFIT1 F45A/Y50A (natural protein, human, UniProt P09914 1-478, looked up)
chain: T4 sequence with F45A, Y50A
B2: binds (native gel or EMSA [4]).

B3: hIFIT1 W147L (natural protein, human, UniProt P09914 1-478, looked up)
chain: T4 sequence with W147L
B3: binds (native gel or EMSA [4]).

B4: hIFIT1 Y218A (natural protein, human, UniProt P09914 1-478, looked up)
chain: T4 sequence with Y218A
B4: binds (native gel or EMSA [4]).

B5: hIFIT1 Y50A (natural protein, human, UniProt P09914 1-478, looked up)
chain: T4 sequence with Y50A
B5: binds (native gel or EMSA [4]).

B6: hIFIT1 F45A (natural protein, human, UniProt P09914 1-478, looked up)
chain: T4 sequence with F45A
B6: binds (native gel or EMSA [4]).

B7: cap0 62-nt β-globin(G) RNA (ssRNA)
RNA: GACACUUGCUUUUGACACAACUGUGUUUACUUGCAAUCCCCCAAAACAGACAGAAUGGUGCA
modifications: m7Gppp cap0
B7: no binding (hIFIT3); no binding (hIFIT2); no binding (hIFIT5). B7: binds (hIFIT1 [5]).

B8: cap1 62-nt β-globin(G) RNA (ssRNA)
RNA: B7 RNA
modifications: m7GpppGm cap1
B8: no binding (hIFIT1 [6]); no binding (hIFIT3); no binding (hIFIT2). B8: no binding (hIFIT5).

B9: human IFIT3 (hIFIT3), recombinant (natural protein, UniProt O14879 1-490, looked up)
chain: T1 sequence
B9: binds (native gel or EMSA [4]).

B10: human IFIT2 (hIFIT2), recombinant (natural protein, UniProt P09913 1-472, looked up)
chain: T2 sequence
B10 was tested, and the “stoichiometry N” value (native gel or EMSA [4]) was 2.
